Test [1] concerns the target T1, Flag tagged recombinant DLL3 (Adipogen) (Homo sapiens (Human), UniProt Q9NYJ7 27-492).
T1 construct: Bought reagent; also called Flag-DLL3
T1 sequence: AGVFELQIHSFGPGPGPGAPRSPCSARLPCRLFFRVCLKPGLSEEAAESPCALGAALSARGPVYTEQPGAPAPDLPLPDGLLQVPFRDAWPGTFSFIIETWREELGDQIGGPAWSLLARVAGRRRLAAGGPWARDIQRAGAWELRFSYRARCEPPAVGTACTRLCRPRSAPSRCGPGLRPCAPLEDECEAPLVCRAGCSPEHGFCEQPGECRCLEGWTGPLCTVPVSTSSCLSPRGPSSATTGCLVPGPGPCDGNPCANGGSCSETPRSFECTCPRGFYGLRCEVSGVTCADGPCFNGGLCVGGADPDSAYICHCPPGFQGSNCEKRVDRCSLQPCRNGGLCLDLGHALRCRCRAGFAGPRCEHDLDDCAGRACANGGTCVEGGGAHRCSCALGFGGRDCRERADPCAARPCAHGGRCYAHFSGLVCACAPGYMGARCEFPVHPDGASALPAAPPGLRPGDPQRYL
As to the kind of experiment: flow cytometry, percent of T cells that recognise recombinant DLL3, Donor 116. In general terms: Flow cytometry measures light scatter and fluorescence of single cells or particles in a stream.
Protocol: (§1) To determine the percentage of T cells that were successfully transduced with DLL3 CAR, T cells were first incubated with 1 ug/ml Flag tagged recombinant DLL3 (Adipogen) in PBS+1% BSA for 20 minutes at 4 C.

The target in test [2] is T1, Flag tagged recombinant DLL3 (Adipogen). Kind of test: flow cytometry, percent of T cells that recognise recombinant DLL3, Donor 419.
Protocol: as §1
Test [3] has the same target. As to the kind of experiment: flow cytometry, percent of T cells that recognise recombinant DLL3, Donor 117.
Protocol: as §1
Test [4] shares this target. As to the kind of experiment: flow cytometry, primary T cells with the CAR, 1 ug/ml Flag tagged recombinant DLL3, PE anti-Flag.
Protocol: as §1

B1: 4F9 (other)
CAR: QVQLQQWGAGLLKPSETLSLTCAVYGGSFSGYYWTWIRQPPGKGLEWIGEITHSGSTNYNPSLKSRVSISVDTSKNQFSLKLSSVTAADTAVYYCARGEYGSGSRFDYWGQGTLVTVSSGGGGSGGGGSGGGGSGGGGSAIQMTQSPSSLSASVGDRVAITCRASQGIRDDLGWYQQKPGKAPKLLIYAASSLQSGVPSRFSGSGSDTDFTLTISSLQPEDFATYYCLQDYDYPLTFGGGTKVEIKTTTPAPRPPTPAPTIASQPLSLRPEACRPAAGGAVHTRGLDFACDIYIWAPLAGTCGVLLLSLVITKRGRKKLLYIFKQPFMRPVQTTQEEDGCSCRFPEEEEGGCELRVKFSRSADAPAYQQGQNQLYNELNLGRREEYDVLDKRRGRDPEMGGKPRRKNPQEGLYNELQKDKMAEAYSEIGMKGERRRGKGHDGLYQGLSTATKDTYDALHMQALPPR
notes: also called anti-DLL3 CAR with 4F9 scFv, on primary T cells
On to B1, for which the Transduction efficiency in test [1] was determined as 67.5%; in test [2] it was 49.4%.

B2: 3E4 (other)
CAR: QVQLQQWGAGLLKPSETLSLTCAVYGGSFSGYYWSWIRQPPGKGLEWIGEIIHSGSSNYNPSLKSRVSISVDTSKNQFSLKLSSVTAADTAVYYCSRGEYGSGSRFDYWGQGTLVTVSSGGGGSGGGGSGGGGSGGGGSAIQMTQSPSSLSASVGDRVAITCRASQGIRDDLGWYQQKPGKAPKLLIYAASSLQSGVPSRFSGSRSDTDFTLTISSLQPEDFATYYCLQDYDYPLTFGGGTKVEIKTTTPAPRPPTPAPTIASQPLSLRPEACRPAAGGAVHTRGLDFACDIYIWAPLAGTCGVLLLSLVITKRGRKKLLYIFKQPFMRPVQTTQEEDGCSCRFPEEEEGGCELRVKFSRSADAPAYQQGQNQLYNELNLGRREEYDVLDKRRGRDPEMGGKPRRKNPQEGLYNELQKDKMAEAYSEIGMKGERRRGKGHDGLYQGLSTATKDTYDALHMQALPPR
notes: also called anti-DLL3 CAR with 3E4 scFv, on primary T cells
Consider B2, for which the results for the Transduction efficiency in test [1] and in test [2] were 58.3% and 46.4%, respectively.

B3: 4G9 (other)
CAR: QVQLQQWGAGLLKPSETLSLTCAVYGGSFSGYYWSWIRQPPGKGLEWIGEITHSGSTNYNPSLKSRVSISVDTSKNQFSLKLSSVTAADTAVYYCARGEYGSGSRFDYWGQGTLVTVSSGGGGSGGGGSGGGGSGGGGSAIQMTQSPSSLSASVGDRVALTCRASQGIRDDLGWYQQKPGKAPKLLIYAASSLQSGVPSRFSGSGSDTDFTLTISSLQPEDFATYYCLQDYDYPLTFGGGTKVEIKTTTPAPRPPTPAPTIASQPLSLRPEACRPAAGGAVHTRGLDFACDIYIWAPLAGTCGVLLLSLVITKRGRKKLLYIFKQPFMRPVQTTQEEDGCSCRFPEEEEGGCELRVKFSRSADAPAYQQGQNQLYNELNLGRREEYDVLDKRRGRDPEMGGKPRRKNPQEGLYNELQKDKMAEAYSEIGMKGERRRGKGHDGLYQGLSTATKDTYDALHMQALPPR
notes: also called anti-DLL3 CAR with 4G9 scFv, on primary T cells
Turning to B3, the results for the Transduction efficiency in test [1] and in test [2] were 48.9% and 35.2%, respectively.

B4: 7F9 (other)
CAR: EVQLVESGGGLVQPGGSLRLSCAASGFTFSSHDMHWVRQATGKGLEWVSAIGIAGDTYYSGSVKGRFTISRENAKNSLYLQMNSLRAGDTAVYYCARANWGEGAFDIWGQGTMVTVSSGGGGSGGGGSGGGGSGGGGSDIQMTQSPSSLSASVGDRVTITCRASQGISDYLAWYQQKPGKIPKLLIYAASTLQSGVPSRFSGSGSGTDFTLTISSLQPEDVATYYCQKYNSVPLTFGGGTKVEIKTTTPAPRPPTPAPTIASQPLSLRPEACRPAAGGAVHTRGLDFACDIYIWAPLAGTCGVLLLSLVITKRGRKKLLYIFKQPFMRPVQTTQEEDGCSCRFPEEEEGGCELRVKFSRSADAPAYQQGQNQLYNELNLGRREEYDVLDKRRGRDPEMGGKPRRKNPQEGLYNELQKDKMAEAYSEIGMKGERRRGKGHDGLYQGLSTATKDTYDALHMQALPPR
notes: also called anti-DLL3 CAR with 7F9 scFv, on primary T cells
Take B4: the results for the Transduction efficiency in test [1] and in test [3] were 42.2% and 37.4%, respectively. For the same molecule, the “Rec-DLL3 gate, percent of live CD3+ cells” value (from here on “Rec-DLL3 gate, percent”) in test [4] is 42.2%.

B5: 26C8 (other)
CAR: QVQLQESGPGLVKPSETLSLTCTVSDNSISNYYWSWIRQPPGKGLEWIAYIYYSGTTNYNPSLKSRVTISLDTSKNQFSLQLSSVTAADAAVYYCARVFHWGFAFDIWGQGTMVTVSSGGGGSGGGGSGGGGSGGGGSEIVLTQSPGTLSLSPGERATLSCRASQRVSNTYLAWYQQNPGQAPRLLIYGASSRATGIPDRFSGSGSGTDFTLTISRLEPEDFAVYYCQQYGTSPLTFGGGTKVEIKTTTPAPRPPTPAPTIASQPLSLRPEACRPAAGGAVHTRGLDFACDIYIWAPLAGTCGVLLLSLVITKRGRKKLLYIFKQPFMRPVQTTQEEDGCSCRFPEEEEGGCELRVKFSRSADAPAYQQGQNQLYNELNLGRREEYDVLDKRRGRDPEMGGKPRRKNPQEGLYNELQKDKMAEAYSEIGMKGERRRGKGHDGLYQGLSTATKDTYDALHMQALPPR
notes: also called anti-DLL3 CAR with 26C8 scFv, on primary T cells
B5: the figures for the Transduction efficiency in test [1] and in test [3] were 48.9% and 46.9%, respectively. For the same molecule, the “Rec-DLL3 gate, percent” value in test [4] was determined as 48.9%.

B6: 9D3 (other)
CAR: QVQLQESGPGLVKPSETLSLTCTVSDDSISNYYWSWIRQPPGKGLEWIGYIFYSGTTNHNPSLKSRLTISLDKAKNQFSLRLSSVTAADTAVYYCARVFNWGFAFDIWGQGTMVTVSSGGGGSGGGGSGGGGSGGGGSEIVLTQSPGTLSLSPGERATLSCRASQRISRTYLAWYQQKPGQAPRLLIYGASSRATGIPDRFTGSGSGTDFTLTISRLEPEDFAVYYCQQYGTSPLTFGGGTKVEINTTTPAPRPPTPAPTIASQPLSLRPEACRPAAGGAVHTRGLDFACDIYIWAPLAGTCGVLLLSLVITKRGRKKLLYIFKQPFMRPVQTTQEEDGCSCRFPEEEEGGCELRVKFSRSADAPAYQQGQNQLYNELNLGRREEYDVLDKRRGRDPEMGGKPRRKNPQEGLYNELQKDKMAEAYSEIGMKGERRRGKGHDGLYQGLSTATKDTYDALHMQALPPR
notes: also called anti-DLL3 CAR with 9D3 scFv, on primary T cells
As to B6, the Transduction efficiency came to 52.4% in test [1] and 50.8% in test [3]. Further, the “Rec-DLL3 gate, percent” value in test [4] turned out to be 52.4%.

B7: 6H1 (other)
CAR: QITLRESGPTLVKPTQTLTLTCTFSGFSLSTSGLGVGWIRQPPGEALEWLALIYWNDDKRYSPSLKSRLSITKDTSKNQVVLIMTNMDPVDTATYYCVHRRIAAPGSVYWGQGTLVTVSSGGGGSGGGGSGGGGSGGGGSDIQMTQSPSSVSASVGDRVTITCRASQGISSWLAWYQQKPGKAPKLLISAASSLQSGVPSRFSGSGSGTDFTLTISSLQPEDFATYYCHQANSFPFTFGQGTKLEIKTTTPAPRPPTPAPTIASQPLSLRPEACRPAAGGAVHTRGLDFACDIYIWAPLAGTCGVLLLSLVITKRGRKKLLYIFKQPFMRPVQTTQEEDGCSCRFPEEEEGGCELRVKFSRSADAPAYQQGQNQLYNELNLGRREEYDVLDKRRGRDPEMGGKPRRKNPQEGLYNELQKDKMAEAYSEIGMKGERRRGKGHDGLYQGLSTATKDTYDALHMQALPPR
notes: also called anti-DLL3 CAR with 6H1 scFv, on primary T cells
On to B7, for which the values for the Transduction efficiency in test [1] and in test [2] were 5.81% and 2.7%, respectively.

B8: 8E11 (other)
CAR: QVQLQESGPGLVKPSETLSLTCTVSGDSISNYYWTWIRQPPGKGLEWIGYIYYSGTTNSNPSLKSRVTVSLDTSKSQFSLNLSSVTAADTAVYYCARVFNRGFAFDIWGQGTMVTVSSGGGGSGGGGSGGGGSGGGGSEIVLTQSPGTLSLSPGERATLSCRASQRISNTYLAWYQQKPGQAPRLLIYGASSRATGIPDRFSGSGSGTDFTLTISRLEPEDFAAYYCQQYDTSPLTFGGGTKVEIKTTTPAPRPPTPAPTIASQPLSLRPEACRPAAGGAVHTRGLDFACDIYIWAPLAGTCGVLLLSLVITKRGRKKLLYIFKQPFMRPVQTTQEEDGCSCRFPEEEEGGCELRVKFSRSADAPAYQQGQNQLYNELNLGRREEYDVLDKRRGRDPEMGGKPRRKNPQEGLYNELQKDKMAEAYSEIGMKGERRRGKGHDGLYQGLSTATKDTYDALHMQALPPR
notes: also called anti-DLL3 CAR with 8E11 scFv, on primary T cells
With B8, the figures for the Transduction efficiency in test [1] and in test [3] were 39.1% and 41.4%, respectively. Also, the “Rec-DLL3 gate, percent” value in test [4] turned out to be 39.1%.

The record behind these values is patent US20230287120A1 (ALLOGENE THERAPEUTICS, published 2023).
